Source: patent publication US7977459 (TOUDAI TLO, dated 2011)
“And” between values parts separate entries of the source, which are not always exact repeats. Identical values can stand only once.

T1: mouse AdipoR1 (mouse adiponectin receptor 1) (mouse, UniProt Q91VH1 1-375)
T1 construct: also called mAdipoR1
T1 sequence: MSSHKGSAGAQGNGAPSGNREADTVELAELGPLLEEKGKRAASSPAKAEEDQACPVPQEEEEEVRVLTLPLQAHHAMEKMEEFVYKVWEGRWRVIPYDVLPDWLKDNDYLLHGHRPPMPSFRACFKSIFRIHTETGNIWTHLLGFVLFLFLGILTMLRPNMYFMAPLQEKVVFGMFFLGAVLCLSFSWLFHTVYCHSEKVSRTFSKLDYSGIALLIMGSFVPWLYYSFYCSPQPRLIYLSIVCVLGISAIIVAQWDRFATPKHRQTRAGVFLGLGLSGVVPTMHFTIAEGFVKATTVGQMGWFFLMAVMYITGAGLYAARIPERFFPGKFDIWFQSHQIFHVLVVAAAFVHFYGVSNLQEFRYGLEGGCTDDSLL

T2: mouse AdipoR2 (mouse adiponectin receptor 2) (mouse, UniProt Q8BQS5 76-386)
T2 construct: also called mAdipoR2
T2 sequence: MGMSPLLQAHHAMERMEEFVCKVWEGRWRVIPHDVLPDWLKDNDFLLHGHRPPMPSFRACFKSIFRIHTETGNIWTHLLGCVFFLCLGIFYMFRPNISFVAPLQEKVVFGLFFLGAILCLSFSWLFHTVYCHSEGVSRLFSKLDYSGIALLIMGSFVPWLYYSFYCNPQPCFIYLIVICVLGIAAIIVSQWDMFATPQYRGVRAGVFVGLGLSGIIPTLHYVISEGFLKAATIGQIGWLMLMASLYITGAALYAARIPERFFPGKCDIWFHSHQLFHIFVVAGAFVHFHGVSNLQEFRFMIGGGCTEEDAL

B1: adiponectin consisting solely of the globular domain (globular Adipo) (ligand, mouse, UniProt Q60994 104-247, looked up)
chain: KGEPGEAAYVYRSAFSVGLETRVTVPNVPIRFTKIFYNQQNHYDGSTGKFYCNIPGLYYFSYHITVYMKDVKVSLFKKDKAVLFTYDQYQEKNVDQASGSVLLHLEVGDQVWLQVYGDGDHNGLYADNVNDSTFTGFLLYHDTN
modifications: 125I-labeled at Tyr in the radioligand binding assay; biotinylated with NHS-LC-Biotin or conjugated with FITC in the FACS experiments
notes: domain: globular domain; also called gAd; globular adiponectin
B2: full-length adiponectin (full-length Adipo) (ligand, mouse, UniProt Q60994 18-247, looked up)
chain: EDDVTTTEELAPALVPPPKGTCAGWMAGIPGHPGHNGTPGRDGRDGTPGEKGEKGDAGLLGPKGETGDVGMTGAEGPRGFPGTPGRKGEPGEAAYVYRSAFSVGLETRVTVPNVPIRFTKIFYNQQNHYDGSTGKFYCNIPGLYYFSYHITVYMKDVKVSLFKKDKAVLFTYDQYQEKNVDQASGSVLLHLEVGDQVWLQVYGDGDHNGLYADNVNDSTFTGFLLYHDTN
modifications: 125I-labeled at Tyr in the radioligand binding assay
notes: also called [125I] full-length Adipo

Tests used:
[1] = molecular target: T1, mouse AdipoR1 (mouse adiponectin …); test: Scatchard analysis of [125I] gAd binding to C2C12 myocytes; high affinity sites, tied to AdipoR1 because AdipoR1 siRNA abrogated them
[2] = molecular target: T2, mouse AdipoR2 (mouse adiponectin …); test: Scatchard analysis of [125I] gAd binding to C2C12 myocytes; intermediate affinity sites, tied to AdipoR2 because AdipoR2 siRNA abrogated them
[3] = molecular target: T2, mouse AdipoR2 (mouse adiponectin …); test: Scatchard analysis of [125I] Ad binding to C2C12 myocytes; intermediate affinity sites, tied to AdipoR2 because AdipoR2 siRNA abrogated them

Binder	Kd [1]	Kd [2]	Kd [3]
B1	~0.06 µg/mL and ~1.14 nM	~0.8 µg/mL and ~14.4 nM	
B2			~6.7 µg/mL and ~49.1 nM
